Results on 19 sequences are retold here after the DeepSol protein solubility set.

A short description of the data set: soluble on expression in E. coli; label from the status in PepcDB or PDB records.
In the case of “MATEAVYGSWDSPITPDLFGKCNCKSICEMQVVGGNVYWIEQNSVTGKRELYSKPTNGDTRTRWADGQSVQTAIHEYGGGALHVLADGSVLFATIEGVFYQKSADSGVEQLAEGNNRMFRFSDFSATDTHVFCVNETHQADAKFPENRLISIDRATKNQNVIAHGADFYAYPRVSPDGKKLVWMQWSLPNMPWDETSIRMADLKGGESSNEVTLKDGTGKQINYSEPTWDGDELLTVNDSTNWWNVYKSAAEPNSVEKNLNPIQREISYPLWQLGFRNYVLNKKYLVMNADGILYVRSGDVTVEIPTPGYTVFGYLSLDQNGSDLFAIASGPKRASSVISIDLANKNFPLKVHRESRDSSEIDALEISEPEEFVFKSDGVDVSAGTLPPVLLLGHGGPTAPAQNNLDLKKQFFTSRGIAVFDVNYRGSTGFGTEFRRMLYKNCGVADRDDMLNGAKALVEQGKVDAEKVLITGSSSGGYLILSCLISPKNIIKAAVSVYGVADLLALDEDTHKLERCYNEMLIGKYPEQASIYEERSPIYHIDKIRTPIAFLHGREDTVVPMSQSITMYEKIRASGVTTALMLFDGEGHGFRNGQVIKESTEATFYFLMKAVGIEPSISSKIEIVNPKH”, the “soluble on expression in E. coli” value is recorded as “not soluble”.

Take “MGSDKIHHHHHHMENKYLVSIIVPVHNTADYLHKCIESLRSQTLQQIEIILVDNLSVDGSSEICDEYAKIDKRIKVLHLSIAGLSIARNAGMRIASAPYIGFVDSDDYVEPAMFEKMLDAMVQSDAEIAYCNFLLEYEFKPNESPYRNSGDIVIRDPKNVLQDMMMEKVSCSACTKLYKSGFLTSLQFPEGKNYEDRLVMYEWVALCKKVVWVDSPFYHYVERQTSICHTMSPMNLYHYFLAEYARMRFMEKYSLFEEEDLFKIRTRLIGTCLTIFKEILLKVNLREFKEPVKDMRQKMKEIAALPEDTYELKYRRRVRKIAYHWHLYYLTHFLFKKGGDS”: the “soluble on expression in E. coli” value is given as “not soluble”.

In the case of “MMRDSPSIQGTLDAATQHALLAGRHADPFSVLGPHQAGAHTVVRVLAPGARTVMAVLPGGQRTPLLPMQPGLFENTVPGLQPGAPAAYRLCIEWEGGIQHTADPYAFGPVLD”, the “soluble on expression in E. coli” value is given as “not soluble”.

Regarding “MKCTKCGKPASVKLRHYNIKLCKEHFNEFIEQRVEKAIKKFKMFGRNSKILIAVSGGKDSVSLWHMLKKLGYEVDALFIRAGKSGMVQKAQEIVEKNAELLNTKLHIVDATEYFGGLSTQEISIMLRRPVCSICGVVRRYLMNKFAYENGYDVVVTGHNLNDEASVLLGNILHWQEGYLERQWPLLPKTHEKLVPKAKPLVLNYEEDIKLYATLNEIPHLEMACPFSVGATSLVYKKILRELEEEQPGITLNFYLGFLKRKKEPKFEVEGLRECKECGYPTTAEVCSFCRLRKQVEKRKNKTPA”, the “soluble on expression in E. coli” value is reported as “soluble”.

In the case of “MGSDKIHHHHHHMDFIEVYPNAIPDELCDRLISTLEQHPGVVDGRTGNGVDIEKKLSRDLTLDSFADLIPLRNELLSHALKGTVEYFDKYSMALMGAVAVKVADNQGQPVTLNPDNYAELGHPRADALVKYLYRSGTINVQKYPKGKGGYPHWHSEQFPQAGHNEALHRVVLYMFYLNDVEEGGETEFFYQGRKLKPQKGTMVIAPAGFTHTHRGNVPVSGDKYIATSWVMFNRAEQLYVVG”, the “soluble on expression in E. coli” value is given as “not soluble”.

As to “EPFWADLQPRVAFVERGGSLWLNCSTNCPRPERGGLETSLRRNGTQRGLRWLARQLVDIREPETQPVCFFRCARRTLQARGLIRTFQRPDRVELMPLPPWQPVGENFTLSCRVPGAGPRASLTLTLLRGAQELIRRSFAGEPPRARGAVLTATVLARREDHGANFSCRAELDLRPHGLGLFENSSAPRELRTFSLS”, the “soluble on expression in E. coli” value was “soluble”.

Regarding “MTETSTVSIASSAIVCVEADIKGEVIIKEGCVVHPFVVFDATKGPIYVGENNIFEEYAVIRNNSDGQPMIIGDWNIFQVHSKSSAKYVGSRNVIGVHAVLEDGCSVSDDCSVGAKCTVFSHQNLEPSVSVYAATNLSRTTKTPNMTSPHQIEFLRKILPSYHHLYGKKKAVATASASAAQ”, the “soluble on expression in E. coli” value was “not soluble”.

Consider “MKLVIDAGHGGYDSGAVGNGLVEKNLTLQIARRVRDILTVNYPITIKMTRDSDVFISLSERANIANAFSADYFISFHINSGGGTGFESYIYNALSNSSTAYAKQQKMHTAVNPVLTKYGLRDRGAKKENYAVLRETAMDAILTETAFIDTAFDANLLKNPQFIEDLSQAYANGIAAIFGVAPNPQPPNPQPVPQTKGIAYVLGKNVNLRNGPSTSSSVIRQLNSPESYVVYQESNGWLDLGNGQWVYNDSSYINFVKTSNSDGSPIGVAYIQGMNVNLRSGPSTTSAVIRQLNSPESYLVYINENGWLNLGGNQWVYNDPAYIKYTQY”, for which the “soluble on expression in E. coli” value is “not soluble”.

For the sequence “MGHHHHHHSHMANSMANSMNNRTRLALIICNTEFDHLPPRNGADFDITGMKELLEGLDYSVDVEENLTARDMESALRAFATRPEHKSSDSTFLVLMSHGILEGICGTVHDEKKPDVLLYDTIFQIFNNRNCLSLKDKPKVIIVQACRGANRGELWVRDSPASLEVASSQSSENLEEDAVYKTHVEKDFIAFCSSTPHNVSWRDSTMGSIFITQLITCFQKYSWCCHLEEVFRKVQQSFETPRAKAQMPTIERLSMTRYFYLFPGN”, the “soluble on expression in E. coli” value was “not soluble”.

For the sequence “EVQLLESGGGLVQPGGSLRLSAAASGFTFSTFSMNWVRQAPGKGLEWVSYISRTSKTIYYADSVKGRFTISRDNSKNTLYLQMNSLRAEDTAVYYVARGRFFDYWGQGTLVTVS”, the “soluble on expression in E. coli” value was “soluble”.

As for “MGHVDREDLLNVIRHELRLEDDDGPGLCSRLLLNPDRKCRAGGLPLDFRLKNGDLMDDGDAGFDDIYEIPLYEEPIHTRTLINDSLALRTAEKIKEEGRRDNFYTGPLDELFVKQEVNWPPKTPISTEKSAIERYLEENSANLNNPLGEYSKFAATTTDPSRQIEIIIPMSCDEEIGFKTLKIEVLTTARIREVIGYCLLQYYLTFDSYLPGEVDDYQFYLAEEDGEIEHELPPLDSSKLVGQVGFTCLGLVSRIKKNGNSRQKRAVAVWFVDKDQYVIEVDNMEKPLRWLRDEAFRLREETVKEREPLFQGLLDIKEYYMEAVDNFDVKLDLEASISSARSLEFVMIRKNSSRAGFHPRGGRYGRQMSAMLTLKMPNSPIAAGPMTPLPTVMEESPAVAGTSNGFGFPKAESCGAIASTPGVTWNDDGGQLSSFIVQRIHKFKPKWKANLSTVV”, the “soluble on expression in E. coli” value is reported as “not soluble”.

Consider “MSLSNIAVSEKDLQRFCRDLLKQSLPDEEAEVIAETLVDADLRGVTSHGVQRVAGYLKRMEDGIIERKTDISVVQDSFATALLDANNGWGQVAGVKAMEMAIQKAGQYGTSFVGVSNSNHFGTASFYTRMAAEKGFIGISMTNASPIMVPFGAKEPSLGPNPISISIPAGEGKKPIILDMSTSNVARGKIMVAKKNKESIPEGWAITKDGKQTTDADEAWEGFVLPMGPKGSGLAIIIDILSGVLTGSLFGKRIPRQYDDPYPQQLGHLFGAINIENFGEPELFYQNVLEKIEETISSEPSEGFDQVYMPGDMESQRKKEYKENGIPLSQEIINELRKTGEKYGVDLEHYLSQNKQREGHHHHHH”, for which the “soluble on expression in E. coli” value is given as “soluble”.

As for “MGSDKIHHHHHHMAYRKQLTRLKAPYLKRILLDPGRVEDWEKYPWNLPLFRGREFELEFTAPITIIVGENGTGKSTLLEAIGALAGYDEAGGGKGYMPVDHSRAIDKSGAALADNFRCHWLPKVTAGWFFRAESFYSVARYLDEAARESGATPPDFLSWSHGEGFIRFFEERCRRQGIYILDEPESALSPSRQIELLKMLRRMDQSGTAQVIMATHSPLLMACPGARLFRISRFGLEPADFRDTDHFRMLRDFSNDPDGFLAEALYEDEA”, the “soluble on expression in E. coli” value is reported as “not soluble”.

For “MVINCAFIGFGKSTTRYHLPYVLNRKDSWHVAHIFRRHAKPEEQAPIYSHIHFTSDLDEVLNDPDVKLVVVCTHADSHFEYAKRALEAGKNVLVEKPFTPTLAQAKELFALAKSKGLTVTPYQNRRFDSCFLTAKKAIESGKLGEIVEVESHFDYYRPVAETKPGLPQDGAFYGLGVHTMDQIISLFGRPDHVAYDIRSLRNKANPDDTFEAQLFYGDLKAIVKTSHLVKIDYPKFIVHGKKGSFIKYGIDQQETSLKANIMPGEPGFAADDSVGVLEYVNDEGVTVREEMKPEMGDYGRVYDALYQTITHGAPNYVKESEVLTNLEILERGFEQASPSTVTLAKLEHHHHHH”, the “soluble on expression in E. coli” value is given as “soluble”.

On to “GPGSMELSFPDKYYEVAKYFDYYVGNLEESPLLSDAQRLMFYALRQQADHGQCTTAAPSFWNSRERHKHQAWKQLGRMSTFEAMVFFVQQFEQLLTQLENSTGQPASTSGATARAGAVDWPSRLREMKSKMAPSPGNRPHRSEALASDGAHATNDILAVRRGPSPA”, for which the “soluble on expression in E. coli” value was “soluble”.

Turning to “MRISLKQLNVFTVIAQEKTMTKAAERLYITKPAVSLSLSELEKNLGYKVFDRVNNRLVLNSEGRQLLPLADELLERAEVIEHQFATDSQLTGSLNIGASDTIGNHIAPVLLSKFQQQYPCDIQQLFISNTAQIINRLLEFQLDIGLVEGKAHHPKLNMIEWRRDDMYLVCSPSHPLATKAQVTLDDLEHSTWLLREEGSGSREYFINHIAANLNDWHESLQLHTTEAIINCCAENMGLACLSQLAAQNAINDGRLVKLAYNKTLARQYWLLVHKEKYQTPLLQYFMNFIQQK”, the “soluble on expression in E. coli” value is listed as “not soluble”.

As to “MEGCVSNIMICNLAYSGKLDELKERILADKSLATRTDQDSRTALHWACSAGHTEIVEFLLQLGVPVNDKDDAGWSPLHIAASAGRDEIVKALLVKGAHVNAVNQNGCTPLHYAASKNRHEIAVMLLEGGANPDAKDHYDATAMHRAAAKGNLKMVHILLFYKASTNIQDTEGNTPLHLACDEERVEEAKFLVTQGASIYIENKEEKTPLQVAKGGLGLILKRLAEGEEASM”, the “soluble on expression in E. coli” value is listed as “soluble”.

With “MTSEHRSASVTPRHISFFNIPGHGHVNPSLGIVQELVARGHRVSYAITDEFAAQVKAAGATPVVYDSILPKESNPEESWPEDQESAMGLFLDEAVRVLPQLEDAYADDRPDLIVYDIASWPAPVLGRKWDIPFVQLSPTFVAYEGFEEDVPAVQDPTADRGEEAAAPAGTGDAEEGAEAEDGLVRFFTRLSAFLEEHGVDTPATEFLIAPNRCIVALPRTFQIKGDTVGDNYTFVGPTYGDRSHQGTWEGPGDGRPVLLIALGSAFTDHLDFYRTCLSAVDGLDWHVVLSVGRFVDPADLGEVPPNVEVHQWVPQLDILTKASAFITHAGMGSTMEALSNAVPMVAVPQIAEQTMNAERIVELGLGRHIPRDQVTAEKLREAVLAVASDPGVAERLAAVRQEIREAGGARAAADILEGILAEAG”, the “soluble on expression in E. coli” value is listed as “soluble”.

In the case of “MGSDKIHHHHHHMNISTIVSNLKDLILEVRAPYDLEITGVSNHSSKVKKGDLFICRRGEKFDSHEIIPEVMEKGAVAVVVEREIDLDFPYIQVFDSRYFEAKVASLFFEDPWKDVLTFGVTGTNGKTTTTMMIYHMLTSLGERGSVLTTAVKRILGNSYYDDITTPDAITILSAMKENREGGGKFFALEVSSHALVQQRVEGVRFDVGIFTNISRDHLDFHGTFENYLKAKLHLFDLLKDDGVAVLNESLADAFNRKSRKITFGTSKNADYRLGNIEVSWEGTQFVLETPDGLLKVFTRAIGDFNAYNAAAAIAALHQLGYDPKDLASSLETFTGVEGRFEVVRGAKKIGLNVVVDFAHSPDALEKLLKNVRKISQGRVIVVFGAGGNSDRGKRPMMSEVASKLADVVILTTDDPRGEDPEQIMEDLIKGIDKRKPYLVLFDRREAIETALTIANRGDSVVIAGRGHERYQIIDEEKKVPFQDREVVEEIIRDKLKGRKYAQ”, the “soluble on expression in E. coli” value is reported as “not soluble”.
